Reference: US20240252614A1 (Pfizer, published 2024)

Tests used:
hMPV079 = target: T1, hMPV079 (hMPV A, UniProt Q6WB98 19-102); assay: BLI, no stress
T1 construct: T411C-Q434C, A140C-S149C, A459P
Procedure: (§1) The OCTET HTX (Sartorius, Gottingen, Germany) instrument was used to evaluate the expression and conformational integrity for each mutant. All measurements were conducted at 30° C. temperature in 96-well black plates (Corning, Corning, NY) with a final volume of 240 μL per well at a constant agitation rate of 1000 RPM.
(§2) Conformation integrity of hMPV A F protein mutants were evaluated by thermal stress experiments. Crude cell culture supernatants were normalized based on the results of the titer quantitation and then incubated for 1 hour at room temperature and two higher temperatures. […] Anti-Human IgG Fc Capture (AHC) biosensors were first equilibrated in PB before being dipped into more PB to establish the initial baseline. […] The mAb-bound biosensors were then dipped into the thermal stressed cell culture supernatants for 5 minutes. The kinetics analysis was done by OCTET data analysis software (version 12.0, Sartorius) based on curve fitting of the entire associate step.

hMPV081 = target: T2, hMPV081 (hMPV A, UniProt Q6WB98 19-102); assay: BLI, no stress
T2 construct: T411C-Q434C, A140C-S149C, T365I
Procedure: as §1, §2

hMPV082 = target: T3, hMPV082 (hMPV A, UniProt Q6WB98 19-102); assay: BLI, no stress
T3 construct: T411C-Q434C, A140C-S149C, G239A
Procedure: as §1, §2

hMPV083 = target: T4, hMPV083 (hMPV A, UniProt Q6WB98 19-102); assay: BLI, no stress
T4 construct: T411C-Q434C, A140C-S149C, A459P, G239A, T49I, T365I
Procedure: as §1, §2

hMPV084 = target: T5, hMPV084 (hMPV A, UniProt Q6WB98 19-102); assay: BLI, no stress
T5 construct: T411C-Q434C, L141C-A161C
Procedure: as §1, §2

hMPV087 = target: T6, hMPV087 (hMPV A, UniProt Q6WB98 19-102); assay: BLI, no stress
T6 construct: T411C-Q434C, L141C-A161C, T365I
Procedure: as §1, §2

hMPV090 = target: T7, hMPV090 (hMPV A, UniProt Q6WB98 19-102); assay: BLI, no stress
T7 construct: T411C-Q434C, L141C-A161C, A459P, G239A, T49I, S149T, T365I
Procedure: as §1, §2

hMPV118 = target: T8, hMPV118 (hMPV B, UniProt Q6WB98 19-102); assay: BLI, 56C stress
T8 construct: T49I, T150C-R156C
Procedure: (§3) All measurements were conducted at 30° C. temperature in 96-well black plates (Corning, Corning, NY) with a final volume of 240 μL per well at a constant agitation rate of 1000 RPM.
(§4) Conformation integrity of hMPV B F protein mutants were evaluated by a thermal stress experiment. Crude cell culture supernatants were normalized based on the results of the titer quantitation and then incubated for 1 hour at room temperature and two higher temperatures. For the testing of hMPV B single mutants, the two temperatures were 53° C. and 56° C. After the incubation, the protein mutants were probed with prefusion specific monoclonal antibody hMPV-2 by OCTET HTX. Anti-Human IgG Fc Capture (AHC) biosensors were first equilibrated in PB before being dipped into more PB for to establish the initial baseline. Biosensors were incubated with hMPV-2 before being equilibrated in PB to establish the experimental baseline. The mAb-bound biosensors were then dipped into the thermal stresses cell culture supernatants for 5 minutes.

hMPV120 = target: T9, hMPV120 (hMPV B, UniProt Q6WB98 19-102); assay: BLI, 56C stress
T9 construct: A140C-S149C, T411C-Q434C
Procedure: as §3, §4

hMPV122 = target: T10, hMPV122 (hMPV B, UniProt Q6WB98 19-102); assay: BLI, 56C stress
T10 construct: A140C-S149C, T411C-Q434C, A459P
Procedure: as §3, §4

hMPV123 = target: T11, hMPV123 (hMPV B, UniProt Q6WB98 19-102); assay: BLI, 56C stress
T11 construct: A140C-S149C, G239A, T411C-Q434C
Procedure: as §3, §4

hMPV124 = target: T12, hMPV124 (hMPV B, UniProt Q6WB98 19-102); assay: BLI, 56C stress
T12 construct: L141C-A161C, T411C-Q434C, A459P
Procedure: as §3, §4

hMPV126 = target: T13, hMPV126 (hMPV B, UniProt Q6WB98 19-102); assay: BLI, 56C stress
T13 construct: T49I, T150C-R156C, G239A, A459P
Procedure: as §3, §4

hMPV127 = target: T14, hMPV127 (hMPV B, UniProt Q6WB98 19-102); assay: BLI, 56C stress
T14 construct: A140C-S149C, G239A, T411C-Q434C, A459P
Procedure: as §3, §4

hMPV128 = target: T15, hMPV128 (hMPV B, UniProt Q6WB98 19-102); assay: BLI, 56C stress
T15 construct: T49I, A140C-S149C, G239A, T411C-Q434C, A459P
Procedure: as §3, §4

hMPV129 = target: T16, hMPV129 (hMPV B, UniProt Q6WB98 19-102); assay: BLI, 56C stress
T16 construct: T49I, A140C-S149C, G239A, T365I, T411C-Q434C, A459P
Procedure: as §3, §4

hMPV130 = target: T17, hMPV130 (hMPV B, UniProt Q6WB98 19-102); assay: BLI, 56C stress
T17 construct: L141C-A161C, G239A, T411C-Q434C, A459P
Procedure: as §3, §4

hMPV131 = target: T18, hMPV131 (hMPV B, UniProt Q6WB98 19-102); assay: BLI, 56C stress
T18 construct: T49I, L141C-A161C, G239A, T411C-Q434C, A459P
Procedure: as §3, §4

hMPV132 = target: T19, hMPV132 (hMPV B, UniProt Q6WB98 19-102); assay: BLI, 56C stress
T19 construct: L141C-A161C, S149T, G239A, T411C-Q434C, A459P
Procedure: as §3, §4

hMPV133 = target: T20, hMPV133 (hMPV B, UniProt Q6WB98 19-102); assay: BLI, 56C stress
T20 construct: T49I, L141C-A161C, S149T, G239A, T411C-Q434C, A459P
Procedure: as §3, §4

hMPV134 = target: T21, hMPV134 (hMPV B, UniProt Q6WB98 19-102); assay: BLI, 56C stress
T21 construct: T49I, L141C-A161C, S149T, G239A, T365I, T411C-Q434C, A459P
Procedure: as §3, §4

hMPV135 = target: T22, hMPV135 (hMPV B, UniProt Q6WB98 19-102); assay: BLI, 56C stress
T22 construct: T49I, S149T, A459P
Procedure: as §3, §4

hMPV136 = target: T23, hMPV136 (hMPV B, UniProt Q6WB98 19-102); assay: BLI, 56C stress
T23 construct: A140C-S149C, A459P
Procedure: as §3, §4

hMPV137 = target: T24, hMPV137 (hMPV B, UniProt Q6WB98 19-102); assay: BLI, 56C stress
T24 construct: T49I, A140C-S149C
Procedure: as §3, §4

hMPV138 = target: T25, hMPV138 (hMPV B, UniProt Q6WB98 19-102); assay: BLI, 56C stress
T25 construct: T49I, A140C-S149C, A459P
Procedure: as §3, §4

hMPV139 = target: T26, hMPV139 (hMPV B, UniProt Q6WB98 19-102); assay: BLI, 56C stress
T26 construct: T49I, L141C-A161C, T411C-Q434C
Procedure: as §3, §4

hMPV140 = target: T27, hMPV140 (hMPV B, UniProt Q6WB98 19-102); assay: BLI, 56C stress
T27 construct: T49I, L141C-A161C, T411C-Q434C, A459P
Procedure: as §3, §4

hMPV142 = target: T28, hMPV142 (hMPV B, UniProt Q6WB98 19-102); assay: BLI, 56C stress
T28 construct: L141C-A161C, S149T, A459P
Procedure: as §3, §4

B1: hMPV-2 mAb (antibody, V domains shown)
VH: QVQLQQSGAEVKKPGASVKVSCKASGYTFTSYGISWVRQAPGQGLEWMGWISGYNGNTNYAQTFQGTFTMTTDTSTSTAYMELRRLRSGDTAVYYCARDRYYASGSYNGMDVWGQGTTVTVSS
VL: QSALTQPPSASGAPGQRVTVSCSGSSSNVGSSSVYWYQQLPGTAPKLLIYRNNQRPSGVPDRFSGSKSGTSASLAISGLRSEDEADYYCAAWDDSLSGWVFGGGTKLTVLG
notes: human IgG1
B1 was tested, and the “Response Shift” value (hMPV079) was 0.791 nm, the “Response Shift” value (hMPV081) was 0.837 nm and the “Response Shift” value (hMPV082) was 0.854 nm. The “Response Shift” value (hMPV083) was 0.847 nm, the “Response Shift” value (hMPV084) was 0.862 nm and the “Response Shift” value (hMPV087) was 0.867 nm. For the same binder, the “Response Shift” value (hMPV090) was 0.895 nm, the “Response Shift” value (hMPV118) was 0.801 nm and the “Response Shift” value (hMPV120) was 0.564 nm. For the same binder, the “Response Shift” value (hMPV122) was 0.686 nm, the “Response Shift” value (hMPV123) was 0.559 nm and the “Response Shift” value (hMPV124) was 0.766 nm. The “Response Shift” value (hMPV126) was 0.73 nm, the “Response Shift” value (hMPV127) was 0.674 nm and the “Response Shift” value (hMPV128) was 0.769 nm. The “Response Shift” value (hMPV129) was 0.632 nm, the “Response Shift” value (hMPV130) was 0.62 nm and the “Response Shift” value (hMPV131) was 0.657 nm. The “Response Shift” value (hMPV132) was 0.694 nm, the “Response Shift” value (hMPV133) was 0.616 nm and the “Response Shift” value (hMPV134) was 0.665 nm. The “Response Shift” value (hMPV135) was 0.724 nm, the “Response Shift” value (hMPV136) was 0.541 nm and the “Response Shift” value (hMPV137) was 0.626 nm. For the same binder, the “Response Shift” value (hMPV138) was 0.663 nm, the “Response Shift” value (hMPV139) was 0.65 nm and the “Response Shift” value (hMPV140) was 0.66 nm. For the same binder, the “Response Shift” value (hMPV142) was 0.706 nm.
